Assay results as given in patent EP4588489A1, “LINKER FOR ANTIBODY-DRUG CONJUGATE AND USE THEREOF” (priority 2022, dated 2024).
Like-named read-outs stand apart in the source and are kept apart here.

How the values were obtained:
Test in all cases: cell-based or functional assay
TROP2 [1] = molecular target: T1, TROP2 (UniProt P09758 27-323, limits assumed)
T1 sequence (looked up): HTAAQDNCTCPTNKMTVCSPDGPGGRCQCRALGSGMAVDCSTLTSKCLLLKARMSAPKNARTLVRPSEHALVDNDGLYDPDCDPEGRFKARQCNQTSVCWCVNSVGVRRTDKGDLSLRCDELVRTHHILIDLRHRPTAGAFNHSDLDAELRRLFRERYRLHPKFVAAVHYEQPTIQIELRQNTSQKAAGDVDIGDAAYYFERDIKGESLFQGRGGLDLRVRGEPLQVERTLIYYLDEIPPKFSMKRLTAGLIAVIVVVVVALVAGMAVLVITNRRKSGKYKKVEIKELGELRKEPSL

TROP2 [2] = molecular target: T1, TROP2; remark: listed apart in the source
TROP2 [3] = molecular target: T1, TROP2; remark: listed apart in the source
TROP2 [4] = molecular target: T1, TROP2; remark: listed apart in the source
BCMA [5] = molecular target: T2, BCMA (UniProt Q02223 1-184, limits assumed)
T2 sequence (looked up): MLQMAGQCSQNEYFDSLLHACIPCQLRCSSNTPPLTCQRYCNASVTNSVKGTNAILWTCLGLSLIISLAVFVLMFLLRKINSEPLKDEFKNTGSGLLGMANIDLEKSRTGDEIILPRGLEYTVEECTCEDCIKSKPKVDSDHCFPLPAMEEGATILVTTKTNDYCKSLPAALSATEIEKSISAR

BCMA [6] = molecular target: T2, BCMA; remark: listed apart in the source

B1: hRS7-SN38-D8 (antibody, human IgG1, kappa, V domains shown)
VH: QVQLQQSGSELKKPGASVKVSCKASGYTFTNYGMNWVKQAPGQGLKWMGWINTYTGEPTYTDDFKGRFAFSLDTSVSTAYLQISSLKADDTAVYFCARGGFGSSYWYFDVWGQGSLVTVSS
VL: DIQLTQSPSSLSASVGDRVSITCKASQDVSIAVAWYQQKPGKAPKLLIYSASYRYTGVPDRFSGSGSGTDFTLTISSLQPEDFAVYYCQQHYITPLTFGAGTKVEIKR
modifications: comp.5-linked SN38 on cysteines of reduced interchain disulfides; label D8
B1 was tested, and the “EC50(nM), inhibition of BxPC-3 cell proliferation” value (TROP2 [1]) was 6.46 nM.

B2: hRS7-C7-D4 (antibody, human IgG1, kappa, V domains shown)
VH: B1 VH
VL: B1 VL
modifications: linker-drug comp7 on cysteines of reduced interchain disulfides; DAR 3.56
For B2, the “EC50(nM), inhibition of BxPC-3 cell proliferation” value (TROP2 [2]) was 0.305 nM and the “Relative activity (%), inhibition of BxPC-3 cell proliferation” value (TROP2 [2]) was 103%.

B3: hRS7-CPD2-NC-D4 (antibody, human IgG1, kappa, V domains shown)
VH: B1 VH
VL: B1 VL
modifications: linker-drug CPD2 on cysteines of reduced interchain disulfides; label D4
In the case of B3, the “EC50(nM), inhibition of BxPC-3 cell proliferation” value (TROP2 [3]) is reported as 0.327 nM and the “Relative activity (%), inhibition of BxPC-3 cell proliferation” value (TROP2 [3]) is reported as 147%.

B4: hRS7-C9-D4 (antibody, human IgG1, kappa, V domains shown)
VH: B1 VH
VL: B1 VL
modifications: linker-drug comp9 on cysteines of reduced interchain disulfides; DAR 3.54
With B4 the “EC50(nM), inhibition of BxPC-3 cell proliferation” value (TROP2 [2]) was 0.377 nM and the “Relative activity (%), inhibition of BxPC-3 cell proliferation” value (TROP2 [2]) was 108%.

B5: hRS7-CPT004-D4 (antibody, human IgG1, kappa, V domains shown)
VH: B1 VH
VL: B1 VL
modifications: linker-drug CPT004 on cysteines of reduced interchain disulfides; label D4
In the case of B5, the “EC50(nM), inhibition of BxPC-3 cell proliferation” value (TROP2 [1]) is reported as 0.144 nM and the “Relative activity (%), inhibition of BxPC-3 cell proliferation” value (TROP2 [1]) is reported as 109%.

B6: ADC03 (hRS7 conjugated to CPD1) (antibody, human IgG1, kappa, V domains shown)
VH: B1 VH
VL: B1 VL
modifications: linker-drug CPD1 on cysteines of reduced interchain disulfides; average DAR 3.82
With B6 the “A431 IC50/µg/mL (in vitro cell viability assay)” value (TROP2 [4]) was 0.074 µg/mL.

B7: ADC05 (hRS7 conjugated to CPD3) (antibody, human IgG1, kappa, V domains shown)
VH: B1 VH
VL: B1 VL
modifications: linker-drug CPD3 on cysteines of reduced interchain disulfides; average DAR 3.99
With B7 the “A431 IC50/µg/mL (in vitro cell viability assay)” value (TROP2 [4]) was 0.024 µg/mL.

B8: hRS7-CPD5-NC-D4 (antibody, human IgG1, kappa, V domains shown)
VH: B1 VH
VL: B1 VL
modifications: linker-drug CPD5 on cysteines of reduced interchain disulfides; label D4
B8 was tested, and the “EC50(nM), inhibition of BxPC-3 cell proliferation” value (TROP2 [3]) was 0.478 nM and the “Relative activity (%), inhibition of BxPC-3 cell proliferation” value (TROP2 [3]) was 79.6%.

B9: anti-BCMA-005-Hu178-CPD-D4 (antibody, human IgG1, kappa, V domains shown)
VH: EVQLVESGGGLVKPGGSLRLSCAASGFTFSNFDMAWVRQAPGKGLEWVASIVTRGDDTYYRDSVRGRFTISRDNAKNTQYLQMNSLRAEDTAVYYCARHDYGGPSGWFGYWGQGTLVTVSS
VL: DIQMTQSPSSLSASVGDRVTITCRASQGFSNNLNWYQQKPGKTPKPLIYYTSNLHSGVPSRFSGSGSGTDYSLTISSLQPEDFATYYCQQDASFPPTFGQGTKLEIKR
modifications: linker-drug CPD1 on cysteines of reduced interchain disulfides; HIC-DAR 4.24
For B9, the “EC50(nM), inhibition of MM.1S cell proliferation” value (BCMA [5]) was 12.2 nM.

B10: anti-BCMA-005-Hu178-vcMMAF-D4 (antibody, human IgG1, kappa, V domains shown)
VH: B9 VH
VL: B9 VL
modifications: vc-MMAF on cysteines of reduced interchain disulfides; HIC-DAR 3.86
In the case of B10, the “EC50(nM), inhibition of MM.1S cell proliferation” value (BCMA [6]) is reported as 1.12 nM and the “Relative activity (%), inhibition of MM.1S cell proliferation” value (BCMA [6]) is reported as 166%.

B11: anti-BCMA-005-Hu178-vcMMAE-D4 (antibody, human IgG1, kappa, V domains shown)
VH: B9 VH
VL: B9 VL
modifications: vc-MMAE on cysteines of reduced interchain disulfides; HIC-DAR 3.78
B11 was tested, and the “EC50(nM), inhibition of MM.1S cell proliferation” value (BCMA [6]) was 1.87 nM, the “Relative activity (%), inhibition of MM.1S cell proliferation” value (BCMA [6]) was 100% and the “EC50(nM), inhibition of MM.1S cell proliferation” value (BCMA [5]) was 2.3 nM.

B12: anti-BCMA-005-Hu178-CPD-D8 (antibody, human IgG1, kappa, V domains shown)
VH: B9 VH
VL: B9 VL
modifications: linker-drug CPD1 on cysteines of reduced interchain disulfides; HIC-DAR 7.73
With B12 the “EC50(nM), inhibition of MM.1S cell proliferation” value (BCMA [5]) was 4.56 nM.

B13: anti-BCMA-005-Hu178-glucoseMMAE-NC-D4 (antibody, human IgG1, kappa, V domains shown)
VH: B9 VH
VL: B9 VL
modifications: Linker-MMAE derivative 1 on cysteines of reduced interchain disulfides; HIC-DAR 3.73
In the case of B13, the “EC50(nM), inhibition of MM.1S cell proliferation” value (BCMA [6]) is reported as 2.15 nM and the “Relative activity (%), inhibition of MM.1S cell proliferation” value (BCMA [6]) is reported as 86.8%.

B14: anti-BCMA-005-Hu178-OMeMMAE-D4 (antibody, human IgG1, kappa, V domains shown)
VH: B9 VH
VL: B9 VL
modifications: Linker-MMAE derivative 2 on cysteines of reduced interchain disulfides; HIC-DAR 3.79
For B14, the “EC50(nM), inhibition of MM.1S cell proliferation” value (BCMA [6]) was 2.42 nM and the “Relative activity (%), inhibition of MM.1S cell proliferation” value (BCMA [6]) was 77.1%.
